Experimental data reported in patent publication US20150087046A1 (SPIBER TECHNOLOGIES, published 2015).

B1: His6-scFv1-NTCT fusion protein (scFv)
chain: MGSSGHHHHHHMEVQLLESGGGLVQPGGSLRLSCAASGFTFSSYEMNWVRQAPGKGLEWVSGISGSGGFTYYADSVKGRFTISRDNSKNTLYLQMNSLRAEDTAMYYCAREGYQDAFDIWGQGTLVTVSSGGGGSGGGGSGGGGSQSVLTQPPSASGTPGQRVTISCTGSSSNIGAGYDVHWYQQLPGTAPKLLIYSNNQRPSGVPDRFSGSKSGTSASLAISGLRSEDEADYYCAAWDDSLSGPPWVFGGGTKLTVLGEQKLISEEDLSGSAAAGNSSHTTPWTNPGLAENFMNSFMQGLSSMPGFTASQLDDMSTIAQSMVQSIQSLAAQGRTSPNKLQALNMAFASSMAEIAASEEGGGSLSTKTSSIASAMSNAFLQTTGVVNQPFINEITQLVSMFAQAGMNDVSAGNSGIQGYGQSSASASAAASAASTVANSVSRLSSPSAVSRVSSAVSSLVSNGQVNMAALPNIISNISSSVSASAPGASGCEVIVQALLEVITALVQIVSSSSVGYINPSAVNQITNVVANAMAQVMG
B2: His6-ABD-NTCT fusion protein (other)
chain: MGSSGHHHHHHMLAEAKVLANRELDKYGVSDYYKNLINNAKTVEGVKALIDEILAALPGNSSHTTPWTNPGLAENFMNSFMQGLSSMPGFTASQLDDMSTIAQSMVQSIQSLAAQGRTSPNKLQALNMAFASSMAEIAASEEGGGSLSTKTSSIASAMSNAFLQTTGVVNQPFINEITQLVSMFAQAGMNDVSAGNSGIQGYGQSSASASAAASAASTVANSVSRLSSPSAVSRVSSAVSSLVSNGQVNMAALPNIISNISSSVSASAPGASGCEVIVQALLEVITALVQIVSSSSVGYINPSAVNQITNVVANAMAQVMG
notes: Tested as a solid film (polymer of the fusion protein) cast in 96-well plates from 15 ul of 1 mg/ml protein
B3: His6-ABD-CT fusion protein (other)
chain: MGHHHHHHMLAEAKVLANRELDKYGVSDYYKNLINNAKTVEGVKALIDEILAALPGNSGIQGYGQSSASASAAASAASTVANSVSRLSSPSAVSRVSSAVSSLVSNGQVNMAALPNIISNISSSVSASAPGASGCEVIVQALLEVITALVQIVSSSSVGYINPSAVNQITNVVANAMAQVMG
notes: as for B2
B4: NTCT (control) film (other)
chain: HHHHHHMSHTTPWTNPGLAENFMNSFMQGLSSMPGFTASQLDDMSTIAQSMVQSIQSLAAQGRTSPNKLQALNMAFASSMAEIAASEEGGGSLSTKTSSIASAMSNAFLQTTGVVNQPFINEITQLVSMFAQAGMNDVSASASAGASAAASAGAGSGNSGIQGYGQSSASASAAASAASTVANSVSRLSSPSAVSRVSSAVSSLVSNGQVNMAALPNIISNISSSVSASAPGASGCEVIVQALLEVITALVQIVSSSSVGYINPSAVNQITNVVANAMAQVMG
notes: also called His6NT-CT; His6NTCT
B5: CT (control) film (other)
chain: SRLSSPSAVSRVSSAVSSLVSNGQVNMAALPNIISNISSSVSASAPGASGCEVIVQALLEVITALVQIVSSSSVGYINPSAVNQITNVVANAMAQVMG

Columns and labels:
[1] = molecular target: biotinylated antigen sample (antigen recognised by scFv1, specific for Systemic Lupus Erythematosus); experiment: microarray of spotted films, 10 nM biotinylated antigen, Alexa-647-streptavidin, spot intensity; reference: pure scFv1 control
[2] = molecular target: T1, albumin from human blood plasma (human, UniProt P02768 25-609); experiment: film incubated with human blood plasma (1:5), acid elution, non-reducing SDS-PAGE
T1 construct: Not purified: the albumin source was diluted human blood plasma
T1 sequence (P02768 25-609 limits assumed): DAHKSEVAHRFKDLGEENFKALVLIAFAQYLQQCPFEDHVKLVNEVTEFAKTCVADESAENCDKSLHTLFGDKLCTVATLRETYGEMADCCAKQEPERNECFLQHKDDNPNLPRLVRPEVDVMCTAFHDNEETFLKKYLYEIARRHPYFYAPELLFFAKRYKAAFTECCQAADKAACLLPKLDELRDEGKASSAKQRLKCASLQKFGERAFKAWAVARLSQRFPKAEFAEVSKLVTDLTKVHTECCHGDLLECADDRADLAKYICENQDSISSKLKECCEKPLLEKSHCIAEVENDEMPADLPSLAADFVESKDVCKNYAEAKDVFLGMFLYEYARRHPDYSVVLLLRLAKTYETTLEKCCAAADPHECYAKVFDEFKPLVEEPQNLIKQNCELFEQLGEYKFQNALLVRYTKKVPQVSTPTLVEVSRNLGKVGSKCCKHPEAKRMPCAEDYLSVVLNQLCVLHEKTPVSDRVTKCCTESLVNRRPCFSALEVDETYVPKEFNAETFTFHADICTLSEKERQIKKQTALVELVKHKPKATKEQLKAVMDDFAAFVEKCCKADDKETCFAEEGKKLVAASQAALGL
Description: Films of His₆-ABD-CT were casted in 96-well plates (Tissue culture plate, Suspension cells, 83.1835.500, Sarstedt) from 15 μl of 1 mg/ml soluble fusion protein per film. The films were then allowed to solidify over night (20° C., 35% relative humidity). The same procedure was followed for casting films of His₆-ABD-NTCT from 15 μl of 1 mg/ml protein solution.
(§1) To evaluate the ability of ABD-NTCT films to bind albumin, human blood plasma was used as albumin source. Four films of ABD-NTCT and ABD-CT were pre-wetted with 150 μl of 1×PBS followed by incubation of 100 μl of human blood plasma (1:5 dilution) for 30 min at room temperature. After washing three times with 200 μl 1×PBS, bound albumin was eluted in 50 μl by lowering the pH to approximately 2.7 with elution buffer (i.e. 0.5 M acetic acid, 1 M urea, 100 mM NaCl), after which the eluted fractions were analyzed by non-reducing SDS-PAGE. Films of NTCT and CT were used as control material, and were treated in the same way.

[3] = molecular target: T1, albumin from human blood plasma; experiment: film incubated with plasma, acid elution, non-reducing SDS-PAGE
Description: as §1

Binder | binding result [2] | binding result [3] | further results
B1 |  |  | fold increase of antigen recognition against the scFv1 control [1]: 25 times
B2 | binds |  | 
B3 | binds |  | 
B4 |  | no binding (tested: human blood plasma (1:5 dilution)) | 
B5 |  | no binding (tested: human blood plasma (1:5 dilution)) | 
